Measured values taken from patent US20200054723A1 (ALLAKOS, published 2020).

Key:
[1] = target: T1, human Siglec-8 Domains 1, 2, and 3 Fusion Protein (human); assay: ELISA, coated fusion protein, antibody at 1 µg/ml
T1 construct: fused to human Ig-Fc, expressed in CHO cells; also called Domain 1 + 2 + 3-Fc
Procedure: (§1) To identify the region comprising the epitope for anti-Siglec-8 antibodies, fusion proteins containing each of the Siglec-8 extracellular domains fused to human Ig-Fc were expressed and purified from CHO cells.
(§2) For the antibody binding assays, ELISA plates (MaxiSorp; Nunc) were coated overnight at 4° C. with fusion protein at 0.2 μg/ml and blocked for 1 hour at room temperature with 2% BSA in PBS. Antibodies at 1 μg/ml were added and the plates were incubated for 2 hours at room temperature. After washing the plates, horseradish peroxidase conjugated secondary antibody was added and the plates were incubated for 1 hour. Secondary antibodies were anti-human H+L HRP (Jackson ImmunoResearch, Catalog Number 709-035-149) for humanized antibodies or anti-mouse H+L HRP (Jackson ImmunoResearch, Catalog Number 715-035-151) for mouse antibodies. The plates were developed with TMB Substrate (Sigma, Catalog Number T0440-1L).

[2] = target: T2, human Siglec-8 Domains 1 and 2 Fusion Protein (human); assay: ELISA, coated fusion protein, antibody at 1 µg/ml
T2 construct: fused to human Ig-Fc, expressed in CHO cells; also called Domain 1 + 2-Fc
Procedure: as §1, §2

[3] = target: T3, human Siglec-8 Domain 1 Fusion Protein (human); assay: ELISA, coated fusion protein
T3 construct: fused to human Ig-Fc, expressed in CHO cells; also called Domain 1-Fc
Procedure: as §1, §2

[4] = target: T4, baboon Siglec-8 Domains 1, 2, and 3 Fusion Protein (olive baboon (Papio anubis)); assay: ELISA, coated fusion protein
T4 construct: fused to human Ig-Fc
Procedure: as §1, §2

[5] = target: human Siglec-8 on human cells (eosinophils, mast cells) (human, UniProt Q9NYZ4 17-499); assay: cell-based or functional assay
Chain of human Siglec-8 on human cells (eosinophils, mast cells) (Q9NYZ4 17-499): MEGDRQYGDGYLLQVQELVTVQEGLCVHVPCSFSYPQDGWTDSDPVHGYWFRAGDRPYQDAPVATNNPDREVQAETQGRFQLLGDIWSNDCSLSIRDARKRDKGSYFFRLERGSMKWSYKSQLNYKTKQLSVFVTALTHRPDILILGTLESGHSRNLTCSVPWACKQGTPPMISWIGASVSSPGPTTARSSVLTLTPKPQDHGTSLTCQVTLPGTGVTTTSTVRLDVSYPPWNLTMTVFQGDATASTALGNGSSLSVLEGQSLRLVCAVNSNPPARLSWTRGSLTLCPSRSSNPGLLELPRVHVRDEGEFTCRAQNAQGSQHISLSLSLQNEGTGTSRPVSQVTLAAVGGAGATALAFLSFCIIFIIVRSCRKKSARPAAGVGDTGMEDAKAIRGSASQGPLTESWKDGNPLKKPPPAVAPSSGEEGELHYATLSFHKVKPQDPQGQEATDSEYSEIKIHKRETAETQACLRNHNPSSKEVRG

T4 sequence (chain, as listed by the source limits assumed): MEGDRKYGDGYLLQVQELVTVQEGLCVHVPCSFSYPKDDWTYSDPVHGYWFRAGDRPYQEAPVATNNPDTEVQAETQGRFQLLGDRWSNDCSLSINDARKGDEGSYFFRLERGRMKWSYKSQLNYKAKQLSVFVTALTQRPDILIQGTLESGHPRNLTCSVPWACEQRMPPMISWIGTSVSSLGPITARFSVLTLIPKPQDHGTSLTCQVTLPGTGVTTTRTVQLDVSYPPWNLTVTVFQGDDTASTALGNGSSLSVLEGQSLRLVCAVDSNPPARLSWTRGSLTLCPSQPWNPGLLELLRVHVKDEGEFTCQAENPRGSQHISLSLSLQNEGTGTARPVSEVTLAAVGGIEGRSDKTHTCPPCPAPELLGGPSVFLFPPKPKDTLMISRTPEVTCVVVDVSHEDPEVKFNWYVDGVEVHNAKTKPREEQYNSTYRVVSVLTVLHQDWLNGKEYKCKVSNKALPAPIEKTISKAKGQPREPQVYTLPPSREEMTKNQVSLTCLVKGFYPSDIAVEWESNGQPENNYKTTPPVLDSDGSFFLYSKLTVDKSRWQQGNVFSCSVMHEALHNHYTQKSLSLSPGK
T2 sequence (chain, as listed by the source limits assumed): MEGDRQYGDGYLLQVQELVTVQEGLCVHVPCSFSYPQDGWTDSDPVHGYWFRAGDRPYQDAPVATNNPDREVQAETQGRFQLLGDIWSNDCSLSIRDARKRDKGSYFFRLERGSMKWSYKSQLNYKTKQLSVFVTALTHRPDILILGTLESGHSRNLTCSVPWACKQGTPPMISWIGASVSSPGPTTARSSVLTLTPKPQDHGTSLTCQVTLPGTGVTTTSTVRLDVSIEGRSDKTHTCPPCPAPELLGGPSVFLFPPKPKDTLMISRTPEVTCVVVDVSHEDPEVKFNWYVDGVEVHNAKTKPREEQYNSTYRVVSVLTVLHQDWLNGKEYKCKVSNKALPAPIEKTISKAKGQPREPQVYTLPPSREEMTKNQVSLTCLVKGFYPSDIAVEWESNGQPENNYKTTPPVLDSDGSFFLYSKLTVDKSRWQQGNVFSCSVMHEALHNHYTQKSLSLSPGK
T3 sequence (chain, as listed by the source limits assumed): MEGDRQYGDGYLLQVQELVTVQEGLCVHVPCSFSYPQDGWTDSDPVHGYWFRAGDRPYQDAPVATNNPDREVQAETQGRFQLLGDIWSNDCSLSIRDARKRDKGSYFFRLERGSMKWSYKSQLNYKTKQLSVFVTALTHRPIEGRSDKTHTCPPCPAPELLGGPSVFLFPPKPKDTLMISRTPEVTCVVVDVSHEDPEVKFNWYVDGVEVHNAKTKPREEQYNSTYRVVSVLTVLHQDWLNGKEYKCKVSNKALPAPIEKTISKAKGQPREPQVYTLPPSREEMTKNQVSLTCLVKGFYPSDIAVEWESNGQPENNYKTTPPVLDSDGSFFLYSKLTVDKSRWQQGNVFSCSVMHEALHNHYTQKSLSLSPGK
T1 sequence (chain, as listed by the source limits assumed): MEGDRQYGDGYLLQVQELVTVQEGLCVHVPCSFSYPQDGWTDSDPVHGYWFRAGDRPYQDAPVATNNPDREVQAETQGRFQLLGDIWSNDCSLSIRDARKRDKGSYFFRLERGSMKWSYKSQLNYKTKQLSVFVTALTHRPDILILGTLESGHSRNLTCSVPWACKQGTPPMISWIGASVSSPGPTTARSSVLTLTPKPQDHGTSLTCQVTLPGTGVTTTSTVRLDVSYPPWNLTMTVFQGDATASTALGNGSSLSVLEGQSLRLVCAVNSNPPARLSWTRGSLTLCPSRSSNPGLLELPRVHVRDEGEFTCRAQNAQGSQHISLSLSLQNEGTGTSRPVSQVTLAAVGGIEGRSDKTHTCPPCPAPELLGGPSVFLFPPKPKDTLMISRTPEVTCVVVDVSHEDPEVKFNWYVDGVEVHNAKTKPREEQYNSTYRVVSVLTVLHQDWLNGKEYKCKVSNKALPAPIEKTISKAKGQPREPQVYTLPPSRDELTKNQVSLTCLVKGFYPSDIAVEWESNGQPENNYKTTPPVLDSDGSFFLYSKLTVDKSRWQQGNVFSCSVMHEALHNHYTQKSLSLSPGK

B1: murine 1C3 antibody (antibody, mouse IgG2a, V domains shown)
VH: EVQVVESGGDLVKSGGSLKLSCAASGFPFSSYAMSWVRQTPDKRLEWVAIISSGGSYTYYSDSVKGRFTISRDNAKNTLYLQMSSLKSEDTAMYYCARHETAQAAWFAYWGQGTLVTVSA
VL: QIVLTQSPAIMSASPGEKVTMTCSASSSVSYMHWYQQKSGTSPKRWIYDTSKLAYGVPARFSGSGSGTSYSLTISSMEAEDAATYYCQQWSSNPPTFGGGTKLEIK
notes: murine IgG2a heavy chain and kappa light chain
B1: binds [1]; binds [2]; no binding (tested: 1 µg/ml) [3]. The binding result [4] was “no binding (tested: 1 µg/ml)” and the “Mean EC50 (ng/ml) for eosinophil killing (2 donors)” value [5] was 7.7 ng/mL.
